# Test results taken from patent US20230331850A1.
# Legend:
# Assay in all cases: Bio-Layer Interferometry (Precision Antibody)
# [1] = molecular target: p63:IA^g7 (recombinant peptide:MHCII monomer / tetramer) (mouse)
# [2] = molecular target: 2W:IA^b (recombinant peptide:MHCII monomer) (mouse) (UniProt P14434)
# [3] = molecular target: Eα52-68:IA^b (mouse) (UniProt P14434)
Kd [2] [nM],Substance,also measured
–,10-2.16 MAb (anti-IA^g7) (antibody),Kd [1]: 2.9 nM
7.1,AF6-120.1 (antibody),–
1.9,Y3P (antibody),–
–,Y-Ae (anti-Eα:IA^b) (antibody),Kd [3]: 0.48 nM
